Source: paper PMC8456996
Read-outs that look alike come from different tables or passages of the source.

Key:
[1] = target: FPR1 (FK506-binding protein 1) (Saccharomyces cerevisiae, UniProt P20081 1-114); experiment: NMR HSQC titration
Thioredoxin (hsTXN) [2] = target: T1, Thioredoxin (hsTXN) (Homo sapiens, UniProt P10599 1-105); experiment: NMR HSQC titration
T1 sequence: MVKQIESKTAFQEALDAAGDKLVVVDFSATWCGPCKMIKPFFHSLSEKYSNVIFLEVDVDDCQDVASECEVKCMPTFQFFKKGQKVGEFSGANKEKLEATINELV

TRIM25 PRY/SPRY domain = TRIM25 PRY/SPRY domain (UniProt Q14258 439-630); experiment: NMR HSQC titration
[3] = target: T2, End binding protein 1 (dmEB1) (Drosophila melanogaster, UniProt Q0E9N1 1-291); experiment: EMSA
T2 sequence: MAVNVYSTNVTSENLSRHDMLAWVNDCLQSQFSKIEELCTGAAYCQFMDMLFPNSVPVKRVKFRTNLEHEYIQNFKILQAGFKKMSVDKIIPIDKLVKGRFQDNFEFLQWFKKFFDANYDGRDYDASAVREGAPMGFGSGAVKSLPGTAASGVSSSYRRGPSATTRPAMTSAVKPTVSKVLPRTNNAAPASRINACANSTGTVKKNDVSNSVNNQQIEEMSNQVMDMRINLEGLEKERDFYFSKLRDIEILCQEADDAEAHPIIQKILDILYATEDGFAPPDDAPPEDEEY

[4] = target: T3, Syntrophin-beta-1 PDZ domain (Homo sapiens, UniProt Q13884 111-196); experiment: NMR HSQC titration
T3 sequence: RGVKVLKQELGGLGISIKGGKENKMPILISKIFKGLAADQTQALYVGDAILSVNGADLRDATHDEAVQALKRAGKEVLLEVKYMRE

Thioredoxin (hsTXN) [5] = target: T1, Thioredoxin (hsTXN); experiment: NMR HSQC titration; remark: listed apart in the source
[6] = target: T3, Syntrophin-beta-1 PDZ domain; experiment: NMR HSQC titration; remark: listed apart in the source

Chain of FPR1 (FK506-binding protein 1) (P20081 whole entry): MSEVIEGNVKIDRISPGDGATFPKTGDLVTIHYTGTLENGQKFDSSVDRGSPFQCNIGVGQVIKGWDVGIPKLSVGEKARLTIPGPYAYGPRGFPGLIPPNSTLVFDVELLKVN
Chain of TRIM25 PRY/SPRY domain (Q14258 439-630): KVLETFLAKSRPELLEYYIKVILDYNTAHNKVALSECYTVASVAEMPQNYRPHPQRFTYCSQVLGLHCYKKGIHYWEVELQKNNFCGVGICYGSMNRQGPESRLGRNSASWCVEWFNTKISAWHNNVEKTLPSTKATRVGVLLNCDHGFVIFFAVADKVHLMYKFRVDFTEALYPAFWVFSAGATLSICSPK

B1: poly(U) 9-mer (ssRNA)
RNA: UUUUUUUUU
binding result [1]: no binding

B2: poly(A) 8-mer (ssRNA)
RNA: AAAAAAAA
binding result (Thioredoxin (hsTXN) [2]): no binding

B3: poly(U) 15-mer (ssRNA)
RNA: UUUUUUUUUUUUUUU
binding result (TRIM25 PRY/SPRY domain): binds

B4: poly(U) 25-mer, 32P probe (ssRNA)
RNA: UUUUUUUUUUUUUUUUUUUUUUUUU
binding result [3]: binds

B5: poly(C) 8-mer (ssRNA)
RNA: CCCCCCCC
binding result (Thioredoxin (hsTXN) [2]): no binding
binding result [4]: no binding

B6: poly(U) 8-mer (ssRNA)
RNA: UUUUUUUU
binding result (Thioredoxin (hsTXN) [5]): no binding
binding result [6]: no binding
